Experimental findings from US20140336116A1 (GLYTECH, published 2014) are described below.

Read-outs that look alike come from different tables or passages of the source. Bridges are numbered along the chain shown (N, C = ends). Where no end group is shown, it is not given here. Side-chain parts run from the residue outwards. disialo(aminoethylamide) = disialo sugar chain with sialic acid carboxy groups modified by aminoethylamino groups; diGlcNAc = diGlcNAc sugar chain; disialo = disialo sugar chain; GlcNAc = N-acetylglucosamine; asialo = not defined here

Test [1] addresses T1, somatostatin receptor SSTR1 (Human, UniProt P30872 1-391). The experiment in a line: cell-based or functional assay.
Test [2] addresses T2, somatostatin receptor SSTR2 (Human, UniProt P30874 1-369). The test can be described thus: cell-based or functional assay.
The target in test [3] is T3, somatostatin receptor SSTR3 (Human, UniProt P32745 1-418). The experiment in a line: cell-based or functional assay.
T3 sequence (P32745 whole entry): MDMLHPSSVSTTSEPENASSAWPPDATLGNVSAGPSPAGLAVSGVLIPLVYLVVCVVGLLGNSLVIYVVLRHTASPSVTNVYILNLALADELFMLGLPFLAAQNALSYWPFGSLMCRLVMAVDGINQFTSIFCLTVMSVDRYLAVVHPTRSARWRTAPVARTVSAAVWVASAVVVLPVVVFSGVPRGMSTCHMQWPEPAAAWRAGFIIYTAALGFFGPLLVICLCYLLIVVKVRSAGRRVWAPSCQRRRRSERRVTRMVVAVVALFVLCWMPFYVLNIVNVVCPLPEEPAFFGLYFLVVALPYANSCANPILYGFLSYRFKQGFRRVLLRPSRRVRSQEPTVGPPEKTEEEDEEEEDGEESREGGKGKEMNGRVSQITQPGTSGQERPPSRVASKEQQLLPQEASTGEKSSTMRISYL
The target of test [4] is T2, somatostatin receptor SSTR2. The test can be described thus: radioligand competition. On the technique in general: Loss of bound radioactivity is the signal in a displacement assay; it reports binding, not function.
In test [5] the target is T4, somatostatin receptor SSTR4 (Human, UniProt P31391 1-388). The experiment in a line: cell-based or functional assay.
T4 sequence (P31391 whole entry): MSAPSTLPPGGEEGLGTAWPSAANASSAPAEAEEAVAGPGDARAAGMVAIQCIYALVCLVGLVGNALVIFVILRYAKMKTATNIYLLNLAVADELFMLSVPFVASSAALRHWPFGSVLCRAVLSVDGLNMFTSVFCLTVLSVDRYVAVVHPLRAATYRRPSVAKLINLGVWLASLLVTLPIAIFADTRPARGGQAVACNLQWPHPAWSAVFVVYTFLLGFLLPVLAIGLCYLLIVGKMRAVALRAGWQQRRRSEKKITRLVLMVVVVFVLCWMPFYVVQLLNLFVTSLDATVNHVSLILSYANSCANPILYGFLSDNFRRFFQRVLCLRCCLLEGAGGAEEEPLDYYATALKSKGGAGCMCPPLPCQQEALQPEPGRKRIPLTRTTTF
Test [6] deals with T1, somatostatin receptor SSTR1. The test can be described thus: cell-based or functional assay. The source holds these as a separate data set.
For test [7], the target named is T3, somatostatin receptor SSTR3. The test can be described thus: cell-based or functional assay. The source holds these as a separate data set.
Test [8] concerns the target T4, somatostatin receptor SSTR4. The experiment in a line: cell-based or functional assay. This is another data set of the same source.
Test [9] has the same target. The experiment in a line: cell-based or functional assay. The source holds these as a separate data set.
The target in test [10] is T2, somatostatin receptor SSTR2. The test can be described thus: cell-based or functional assay. This is another data set of the same source.
The target of test [11] is somatostatin receptor SSTR5 (Human, UniProt P35346 1-364). The experiment in a line: cell-based or functional assay.
somatostatin receptor SSTR5, sequence (P35346 whole entry): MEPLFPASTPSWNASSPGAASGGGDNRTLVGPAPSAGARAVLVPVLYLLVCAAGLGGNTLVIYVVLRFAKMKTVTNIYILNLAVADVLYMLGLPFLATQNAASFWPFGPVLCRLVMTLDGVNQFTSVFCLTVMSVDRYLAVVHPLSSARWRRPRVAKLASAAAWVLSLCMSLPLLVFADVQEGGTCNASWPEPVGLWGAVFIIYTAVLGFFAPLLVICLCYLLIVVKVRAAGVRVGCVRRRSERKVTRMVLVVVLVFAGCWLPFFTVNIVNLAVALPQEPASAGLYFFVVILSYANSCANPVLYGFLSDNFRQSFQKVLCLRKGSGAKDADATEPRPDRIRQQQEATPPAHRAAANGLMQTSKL

What is called IC50 is the concentration at which inhibition is half-maximal. Low values mean greater potency in that assay, high ones weaker potency in that assay. Usually Ki stands for the dissociation constant of the complex between target and ligand, obtained from inhibition or displacement. Read a high Ki as lower affinity.

T2 sequence (P30874 whole entry): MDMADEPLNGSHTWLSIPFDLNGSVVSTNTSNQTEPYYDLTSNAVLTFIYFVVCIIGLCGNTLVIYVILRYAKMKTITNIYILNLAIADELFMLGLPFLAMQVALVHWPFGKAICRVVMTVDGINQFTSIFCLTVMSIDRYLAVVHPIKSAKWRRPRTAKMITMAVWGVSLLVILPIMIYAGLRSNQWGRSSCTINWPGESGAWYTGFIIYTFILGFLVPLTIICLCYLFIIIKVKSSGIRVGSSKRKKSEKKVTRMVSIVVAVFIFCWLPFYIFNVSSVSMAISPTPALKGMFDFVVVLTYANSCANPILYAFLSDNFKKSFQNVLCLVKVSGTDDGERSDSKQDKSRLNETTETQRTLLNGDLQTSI
T1 sequence (P30872 whole entry): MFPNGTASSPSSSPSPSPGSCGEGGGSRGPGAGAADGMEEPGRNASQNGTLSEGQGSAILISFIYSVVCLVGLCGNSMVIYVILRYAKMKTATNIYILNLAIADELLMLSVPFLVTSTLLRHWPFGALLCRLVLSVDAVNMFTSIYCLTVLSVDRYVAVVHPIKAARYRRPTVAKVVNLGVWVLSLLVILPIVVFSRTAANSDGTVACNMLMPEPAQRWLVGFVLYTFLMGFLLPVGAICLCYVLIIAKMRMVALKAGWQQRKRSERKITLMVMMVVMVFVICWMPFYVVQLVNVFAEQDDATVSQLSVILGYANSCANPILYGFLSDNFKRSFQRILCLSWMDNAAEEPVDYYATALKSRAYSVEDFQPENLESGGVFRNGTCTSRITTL

Turning to C(disialo(aminoethylamide))ANSNPAMAPRERKAGCKNFFWKTFTSC (disulfide 17-28) [S1C(disialo(aminoethylamide))-SRIF28], the results for the “IC50, cAMP production suppressing action” value in test [1], in test [2] and in test [3] were 1 nM, 0.1 nM and 0.3 nM, respectively.

In turn, C(asialo)ANSNPAMAPRERKAGCKNFFWKTFTSC (disulfide 17-28; reading uncertain) [S1C(asialo)-SRIF28] yielded an IC50 in [4] of 0.2 nM.

For the molecule C(disialo sugar chain)RKAGCKNFFWKTFTSC (disulfide 6-17) [C(disialo)-R-K-SRIF14], in [5], the “IC50, cAMP production suppressing action” value was determined as 0.05 nM.

C([Asn-disialo])ANSNPAMAPRERKAGCKNFFWKTFTSC (disulfide 17-28) [S1C(Asn(disialo))-SRIF28]: the “IC50, cAMP production suppressing action” value in test [6] was determined as 2 nM.

Regarding C(disialo sugar chain)KAGCKNFFWKTFTSC (disulfide 5-16) [C(disialo)-K-SRIF14], the “IC50, cAMP production suppressing action” value in test [7] amounted to 0.1 nM.

B1: 3C(disialo)-R-K-SRIF14 (peptide)
peptide: CCCRKAGCKNFFWKTFTSC
modifications: disialo sugar chain on each of the three N-terminal Cys of the added Cys-Cys-Cys-Arg-Lys-; disulfide Cys17-Cys28
In turn, B1 registered an IC50, cAMP production suppressing action in test [8] of 1.6 nM.

For CAGCKNFFWKTFTSC (disialo sugar chain on the Cys added before Ala15; disulfide Cys17-Cys28) [C(disialo)-SRIF14], in test [9], the “IC50, cAMP production suppressing action” value stood at 0.1 nM.

Take C(GlcNAc)ANSNPAMAPRERKAGCKNFFWKTFTSC (disulfide 17-28) [S1C(GlcNAc)-SRIF28]: the “IC50, cAMP production suppressing action” value in [10] was determined as 0.04 nM.

Take C(trisialo sugar chain)ANSNPAMAPRERKAGCKNFFWKTFTSC (disulfide 17-28) [S1C(trisialo)-SRIF28]: in test [11], the “IC50, cAMP production suppressing action” value was 0.09 nM.

With C(diGlcNAc)ANSNPAMAPRERKAGCKNFFWKTFTSC (disulfide 17-28) [S1C(diGlcNAc)-SRIF28], in test [9], the “IC50, cAMP production suppressing action” value was found to be 0.05 nM.

C(disialo)ANSNPAMAPRERKAGCKNFFWKTFTSC (disulfide 17-28) [S1C(disialo)-SRIF28]: the Ki in [4] is 0.269 nM. The “IC50, cAMP production suppressing action” value came out at 0.075 nM in test [2] and 0.065 nM in test [5].

In the case of C(disialo)ANSC(disialo)PAMAPRERKAGCKNFFWKTFTSC (disulfide 17-28) [S1C(disialo)•N5C(disialo)-SRIF28], in test [11], the “IC50, cAMP production suppressing action” value is 0.09 nM.

C(disialo)ANSNPAMAPRERKAGCKC(GlcNAc)FFWKTFTSC (disulfide 17-28) [S1C(disialo)•N19C(GlcNAc)-SRIF28]: the “IC50, cAMP production suppressing action” value in [10] was 0.08 nM.

B2: S1-3C(asialo)-SRIF28 (peptide)
peptide: CCCANSNPAMAPRERKAGCKNFFWKTFTSC
modifications: Ser1 replaced by three consecutive Cys each with an asialo sugar chain; disulfide Cys17-Cys28
Regarding B2, in test [9], the “IC50, cAMP production suppressing action” value is 0.1 nM.
